In patent US7407776, “Engineered zinc finger proteins for regulation of gene expression” (Sangamo Biosciences, Inc.):

Target: HA-ZFP-5475-KOX1 (Artificial)
Experiment: ChIP with anti-HA in HEK293 cells, relative to GAPDH control; GFP-KOX and non-specific ZFP TF gave no significant enrichment
Description: FIG. 2A is a graph depicting repression of CHK2 expression by ZFP-5475 in cultured cells. Black bars show mRNA levels upon administration of 250 ng of plasmid. Gray bars shown mRNA levels upon administration of 62.5 ng of plasmid and the white bars show mRNA levels upon administration of 15 ng of plasmid. HEK293 cells transfected with the plasmids indicated were assayed for CHK2 mRNA by quantitative RT-PCR (TaqMan) after 72 hrs. The CHK2 mRNA levels were normalized relative to an internal control of GAPDH mRNA, and are expressed as this ratio. Charts represent data from a minimum of two independent experiments, with means and standard deviations shown. Transfection efficiency was assessed in each independent experiment via the use of a GFP expression plasmid control, in all experiments an apparent efficiency of 80-90% GFP positive cells was observed. FIG. 2B is a graph depicting binding of ZFP-5475 to its intended target site within the CHK2 promoter in vivo. […] Enrichment was quantified by RT-PCR Results are expressed as the fold-increase of the ratio to the GAPDH control relative to the results for non-transfected cells, the value of which is arbitrarily set to 1. The same samples were analyzed with primers specific for the p16 locus as a second internal control (open bars). […]

B1: CHK2 promoter ZFP-5475 target site (dsDNA)
DNA 1: ACCCGGGTTCCCCTCGGG
DNA 2: CCCGAGGGGAACCCGGGT
B1 was tested, and the binding signal was roughly 65 fold enrichment.
